In this assay the test system is human brain capillaries. The experiment in a line: Accumulation/uptake of [125I]-p97 in isolated human brain capillaries. It counts as binding. Particulars: for Inhibition of [125I]-p97 binding/accumulation in human brain capillaries: competitor 5 micromolar, 100 nM p97, 1 h at 37° C. (FIG. 5). The protocol:
FIG. 5. Accumulation of p97 in human brain capillaries. Accumulation of [^125I]-p97 was measured at 37° C. for 1 h in isolated human brain capillaries (100 μg/assay). The incubation medium contained [^125I]-p97 and a final concentration of 100 nM p97 in Ringer/Hepes solution. The accumulation of [^125I]-p97 was performed in the presence or absence of 5 μm cold-p97, holo-transferrin or lactoferrin. […] The suspension was filtered under vacuum through a […] pore size Millipore filter. The filter was rinsed with 8 ml of stop solution, and the radioactivity was counted. Nonspecific binding of the radioactivity to the capillaries was determined by the addition of the ice-cold stop solution to the capillaries before adding the incubation medium. This value was subtracted from accumulation values obtained following an 1 h incubation. The results were expressed as ng of [^125I]-p97 accumulated per μg of brain capillaries.
FIG. 16 illustrates the identification of a p97 receptor according to ligand specificity. FIG. 16a, Uptake of [^125I]-p97 into human brain capillaries. The uptake of [^125I]-p97 at 100 nM (control) into isolated human brain capillaries was measured for 1 h at 37° C. in the presence of a 50-fold molar excess of unlabelled p97, human holo-transferrin or human lactoferrin. (*[…] Student's t-test (n=5); FIG. 16b, Effect of RAP on [^125I]-p97 transcytosis across BBCEC monolayers. Apical-to-basal transport of [^125I]-p97 was measured in the presence (closed circles) or absence (open circles) of RAP (25 μg/ml) (n=5); FIG. 16c, Inhibition of bovine [^125I]-lactoferrin transport by p97. Transcytosis of bovine [^125I]-lactoferrin (50 nM) was measured in the presence (closed circles) or absence (open circles) of unlabelled p97 (5 μM) at 37° C. (n=3).
A. Isolation of human brain capillaries. […]
B. p97 accumulation in human brain capillaries. […] Accumulation of [^125I]-p97 was measured at 37° C. for 1 h in isolated human brain capillaries (100 μg/assay). […]

B1: lactoferrin: lactoferrin (Lf), LRP ligand used as competitor (protein, UniProt P02788 20-710, looked up)
Lactotransferrin: GRRRSVQWCAVSQPEATKCFQWQRNMRKVRGPPVSCIKRDSPIQCIQAIAENRADAVTLDGGFIYEAGLAPYKLRPVAAEVYGTERQPRTHYYAVAVVKKGGSFQLNELQGLKSCHTGLRRTAGWNVPIGTLRPFLNWTGPPEPIEAAVARFFSASCVPGADKGQFPNLCRLCAGTGENKCAFSSQEPYFSYSGAFKCLRDGAGDVAFIRESTVFEDLSDEAERDEYELLCPDNTRKPVDKFKDCHLARVPSHAVVARSVNGKEDAIWNLLRQAQEKFGKDKSPKFQLFGSPSGQKDLLFKDSAIGFSRVPPRIDSGLYLGSGYFTAIQNLRKSEEEVAARRARVVWCAVGEQELRKCNQWSGLSEGSVTCSSASTTEDCIALVLKGEADAMSLDGGYVYTAGKCGLVPVLAENYKSQQSSDPDPNCVDRPVEGYLAVAVVRRSDTSLTWNSVKGKKSCHTAVDRTAGWNIPMGLLFNQTGSCKFDEYFSQSCAPGSDPRSNLCALCIGDEQGENKCVPNSNERYYGYTGAFRCLAENAGDVAFVKDVTVLQNTDGNNNEAWAKDLKLADFALLCLDGKRKPVTEARSCHLAMAPNHAVVSRMDKVERLKQVLLHQQAKFGRNGSDCPDKFCLFQSETKNLLFNDNTECLARLHGKTTYEKYLGPQYVAGITNLKKCSTSPLLEACEFLRK
Turning to B1, the “Inhibition of [125I]-p97 binding/accumulation in human brain capillaries” value is recorded as “significantly inhibits”. The “Competition with p97 for receptor binding in human brain capillaries, repeat experiment” value (performed identically to FIG. 5 (FIG. 6)) was “competes”.

B2: p97: recombinant human melanotransferrin (p97), provided by Synapse Technologies (protein, UniProt P08582 20-709, looked up)
Melanotransferrin: GMEVRWCATSDPEQHKCGNMSEAFREAGIQPSLLCVRGTSADHCVQLIAAQEADAITLDGGAIYEAGKEHGLKPVVGEVYDQEVGTSYYAVAVVRRSSHVTIDTLKGVKSCHTGINRTVGWNVPVGYLVESGRLSVMGCDVLKAVSDYFGGSCVPGAGETSYSESLCRLCRGDSSGEGVCDKSPLERYYDYSGAFRCLAEGAGDVAFVKHSTVLENTDGKTLPSWGQALLSQDFELLCRDGSRADVTEWRQCHLARVPAHAVVVRADTDGGLIFRLLNEGQRLFSHEGSSFQMFSSEAYGQKDLLFKDSTSELVPIATQTYEAWLGHEYLHAMKGLLCDPNRLPPYLRWCVLSTPEIQKCGDMAVAFRRQRLKPEIQCVSAKSPQHCMERIQAEQVDAVTLSGEDIYTAGKTYGLVPAAGEHYAPEDSSNSYYVVAVVRRDSSHAFTLDELRGKRSCHAGFGSPAGWDVPVGALIQRGFIRPKDCDVLTAVSEFFNASCVPVNNPKNYPSSLCALCVGDEQGRNKCVGNSQERYYGYRGAFRCLVENAGDVAFVRHTTVFDNTNGHNSEPWAAELRSEDYELLCPNGARAEVSQFAACNLAQIPPHAVMVRPDTNIFTVYGLLDKAQDLFGDDHNKNGFKMFDSSNYHGQDLLFKDATVRAVPVGEKTTYRGWLGLDYVAALEGMSSQQC
For the molecule B2, the “Inhibition of [125I]-p97 binding/accumulation in human brain capillaries” value was “significantly inhibits”.

These data come from patent US7977317B2, “Compositions and methods for modulating blood-brain barrier transport” (Raptor Pharmaceutical Inc., priority 2001, dated 2011).
